Consider seven molecules from US20250154253A1 (ROCKEFELLER UNIVERSITY, published 2025).

Test [1] deals with T1, recombinant mouse CD47 (SinoBiological 57231-MNAH) (mouse, UniProt Q61735 19-140, limits assumed).
T1 construct: Bought protein coated on ELISA plates at 1 ug/mL; also called mCD47
T1 sequence (looked up): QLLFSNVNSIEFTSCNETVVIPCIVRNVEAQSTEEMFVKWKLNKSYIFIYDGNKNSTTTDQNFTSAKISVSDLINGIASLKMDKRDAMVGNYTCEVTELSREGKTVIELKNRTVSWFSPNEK
Briefly: ELISA on plate-coated recombinant mouse CD47 (1 ug/mL), HRP-conjugated anti-IgG, absorbance 450 nm. On the technique in general: In an ELISA, binding on a coated surface is turned into a signal by an enzyme label.

The target of test [2] is T2, FcγRI (mouse, UniProt P26151).
T2 construct: also called mouse FcγRI; mFcγRI
T2 sequence (receptor, looked up): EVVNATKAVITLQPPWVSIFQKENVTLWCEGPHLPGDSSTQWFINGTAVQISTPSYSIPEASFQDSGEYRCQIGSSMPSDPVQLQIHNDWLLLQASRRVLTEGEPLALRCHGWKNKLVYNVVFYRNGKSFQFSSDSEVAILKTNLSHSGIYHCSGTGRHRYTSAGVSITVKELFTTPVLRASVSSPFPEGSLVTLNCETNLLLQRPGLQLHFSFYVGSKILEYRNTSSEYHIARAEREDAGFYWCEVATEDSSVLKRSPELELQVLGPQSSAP
Briefly: no assay stated; drawn summary table of graded binding (- to ++++), for which the text cites Nimmerjahn et al. 2005.

The target of another test is T3, FcγRIII (mouse, UniProt P08508).
T3 construct: also called mouse FcγRIII; mFcγRIII
T3 sequence (receptor, looked up): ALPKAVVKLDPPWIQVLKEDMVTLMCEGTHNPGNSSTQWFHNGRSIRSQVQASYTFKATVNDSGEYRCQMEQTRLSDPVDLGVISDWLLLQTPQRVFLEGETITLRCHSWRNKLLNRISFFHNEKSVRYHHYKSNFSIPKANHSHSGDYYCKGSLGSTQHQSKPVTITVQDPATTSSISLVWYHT
The test is described as above.

The next test addresses T4, FcγRIV.
T4 construct: also called mouse FcγRIV; mFcγRIV
T4 chain: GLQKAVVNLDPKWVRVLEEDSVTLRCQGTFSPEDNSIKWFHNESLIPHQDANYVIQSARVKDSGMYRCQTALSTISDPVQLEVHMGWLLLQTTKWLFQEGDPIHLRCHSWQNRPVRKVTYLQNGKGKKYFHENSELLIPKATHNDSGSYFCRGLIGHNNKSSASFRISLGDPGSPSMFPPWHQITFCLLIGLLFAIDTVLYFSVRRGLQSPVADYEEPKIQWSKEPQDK
The description is as above.

Test [3] has as its target T5, FcγRIIb (mouse, UniProt P08101).
T5 construct: also called mouse FcγRIIb; mFcγRIIB
T5 sequence (receptor, looked up): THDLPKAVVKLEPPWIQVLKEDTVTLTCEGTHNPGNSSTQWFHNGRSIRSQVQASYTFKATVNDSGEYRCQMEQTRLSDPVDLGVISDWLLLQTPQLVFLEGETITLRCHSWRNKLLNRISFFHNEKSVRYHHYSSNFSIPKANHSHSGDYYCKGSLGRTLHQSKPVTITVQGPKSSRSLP
Described as above.

Test [4] concerns the target T6, FcγRI (human, UniProt P12314).
T6 construct: also called human FcγRI; hFcγRI
Description: no assay stated; drawn summary table of graded binding (- to ++++), for which the text cites Weitzenfeld et al. 2019.

The target of test [5] is T7, FcγRIIb (human, UniProt P31994).
T7 construct: also called human FcγRIIb; hFcγRIIB
T7 sequence (receptor, looked up): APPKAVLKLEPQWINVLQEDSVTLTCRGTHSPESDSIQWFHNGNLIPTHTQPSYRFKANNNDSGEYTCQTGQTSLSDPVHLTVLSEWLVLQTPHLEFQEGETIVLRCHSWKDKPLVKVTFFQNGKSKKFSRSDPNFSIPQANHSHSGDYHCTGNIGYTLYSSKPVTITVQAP
Described as above.

The target of test [6] is T8, recombinant human SIRPα-hFc (SinoBiological 11612-H02H1) (human, UniProt P78324 31-370).
T8 construct: Bought fusion protein; also called hSIRPα; recombinant hSIRPα; not shown: human Fc (hFc)
Briefly: flow cytometry: recombinant hSIRPα incubated with RBCs of WT mice.

T8 sequence (P78324 31-370 limits assumed): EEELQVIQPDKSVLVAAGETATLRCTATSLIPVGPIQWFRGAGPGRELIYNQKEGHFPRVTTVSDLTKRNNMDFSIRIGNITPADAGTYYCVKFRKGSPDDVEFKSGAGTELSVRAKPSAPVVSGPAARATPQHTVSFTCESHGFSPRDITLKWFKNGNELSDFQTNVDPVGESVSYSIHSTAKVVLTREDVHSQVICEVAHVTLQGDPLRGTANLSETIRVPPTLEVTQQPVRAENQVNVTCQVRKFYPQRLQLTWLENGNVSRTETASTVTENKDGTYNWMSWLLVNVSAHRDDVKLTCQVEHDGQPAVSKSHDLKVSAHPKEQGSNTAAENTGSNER
T6 sequence (P12314 16-288 limits assumed): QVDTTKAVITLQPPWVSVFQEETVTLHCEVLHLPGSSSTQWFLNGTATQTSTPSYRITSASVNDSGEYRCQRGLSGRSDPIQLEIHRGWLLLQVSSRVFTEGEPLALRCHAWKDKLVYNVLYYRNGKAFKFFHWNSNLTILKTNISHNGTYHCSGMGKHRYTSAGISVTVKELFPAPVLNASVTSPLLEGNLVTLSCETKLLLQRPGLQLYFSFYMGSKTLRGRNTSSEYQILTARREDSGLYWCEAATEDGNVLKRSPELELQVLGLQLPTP

B1: MIAP301-mIgG1-D265A (antibody)
heavy: QVKLLQSGAALVKPGASVKMSCQASGYSFTDYWVTWVKQSHGQSLEWIGEIYPSNTVTNFNDNFKGKATLTVDKSTSTAYMELSRLTSEDSAIYYCTRLGNSGYRVGWFLYWGQGTLVTVISASTKGPSVYPLAPGSAAQTNSMVTLGCLVKGYFPEPVTVTWNSGSLSSGVHTFPAVLQSDLYTLSSSVTVPSSTWPSQTVTCNVAHPASSTKVDKKIVPRDCGCKPCICTVPEVSSVFIFPPKPKDVLTITLTPKVTCVVVAISKDDPEVQFSWFVDDVEVHTAQTKPREEQINSTFRSVSELPIMHQDWLNGKEFKCRVNSAAFPAPIEKTISKTKGRPKAPQVYTIPPPKEQMAKDKVSLTCMITNFFPEDITVEWQWNGQPAENYKNTQPIMDTDGSYFVYSKLNVQKSNWEAGNTFTCSVLHEGLHNHHTEKSLSHSPGK
VL: SDTVLTQSPALAVSPGERVTISCKASESVSSHMHWYQQKPGQQPKLLIYKASNLASGVPARFSGSGSGTDFTLTIDPVEADDTATYFCQQGWNGPFTFGAGTRLELKRAVD
notes: Heavy chain assembled from the VH entry and the constant region entry named for the Fc format; also called mIgG1-D265A Fc variant of MIAP301
As for B1, the binding result in test [1] is recorded as “binds”.

B2: MIAP301-mIgG1 (antibody)
heavy: QVKLLQSGAALVKPGASVKMSCQASGYSFTDYWVTWVKQSHGQSLEWIGEIYPSNTVTNFNDNFKGKATLTVDKSTSTAYMELSRLTSEDSAIYYCTRLGNSGYRVGWFLYWGQGTLVTVISAS
VL: B1 VL
notes: also called mIgG1 Fc variant of MIAP301; not shown: mouse IgG1 heavy chain constant region, wild type
For B2, the binding result in test [1] is “binds”.

B3: MIAP301-mIgG2a (antibody)
heavy: QVKLLQSGAALVKPGASVKMSCQASGYSFTDYWVTWVKQSHGQSLEWIGEIYPSNTVTNFNDNFKGKATLTVDKSTSTAYMELSRLTSEDSAIYYCTRLGNSGYRVGWFLYWGQGTLVTVISASTTAPSVYPLAPVCGGTTGSSVTLGCLVKGYFPEPVTLTWNSGSLSSGVHTFPALLQSGLYTLSSSVTVTSNTWPSQTITCNVAHPASSTKVDKKIEPRVPITQNPCPPLKECPPCAAPDLLGGPSVFIFPPKIKDVLMISLSPMVTCVVVDVSEDDPDVQISWFVNNVEVHTAQTQTHREDYNSTLRVVSALPIQHQDWMSGKEFKCKVNNRALPSPIEKTISKPRGPVRAPQVYVLPPPAEEMTKKEFSLTCMITGFLPAEIAVDWTSNGRTEQNYKNTATVLDSDGSYFMYSKLRVQKSTWERGSLFACSVVHEGLHNHLTTKTISRSLGK
VL: B1 VL
notes: Heavy chain assembled from the VH entry and the constant region entry named for the Fc format; also called mIgG2a Fc variant of MIAP301; anti-mCD47 ab clone MIAP301 (mIgG2a Fc)
For B3, the binding result in test [1] is recorded as “binds”.

B4: IgG1 D265A (antibody)
heavy chain constant region: TKGPSVYPLAPGSAAQTNSMVTLGCLVKGYFPEPVTVTWNSGSLSSGVHTFPAVLQSDLYTLSSSVTVPSSTWPSQTVTCNVAHPASSTKVDKKIVPRDCGCKPCICTVPEVSSVFIFPPKPKDVLTITLTPKVTCVVVAISKDDPEVQFSWFVDDVEVHTAQTKPREEQINSTFRSVSELPIMHQDWLNGKEFKCRVNSAAFPAPIEKTISKTKGRPKAPQVYTIPPPKEQMAKDKVSLTCMITNFFPEDITVEWQWNGQPAENYKNTQPIMDTDGSYFVYSKLNVQKSNWEAGNTFTCSVLHEGLHNHHTEKSLSHSPGK
notes: also called mIgG1-D265A; mouse IgG1 D265A (Fc format)
As for B4, the binding result with FcγRI [2], in the test with FcγRIII, in the test with FcγRIV and in the test with FcγRIIb [3] was “no binding” in each case.

B5: 5F9-GAALIE (antibody, human IgG1)
heavy chain: QVQLVQSGAEVKKPGASVKVSCKASGYTFTNYNMHWVRQAPGQRLEWMGTIYPGNDDTSYNQKFKDRVTITADTSASTAYMELSSLRSEDTAVYYCARGGYRAMDYWGQGTLVTVSSASTKGPSVFPLAPSSKSTSGGTAALGCLVKDYFPEPVTVSWNSGALTSGVHTFPAVLQSSGLYSLSSVVTVPSSSLGTQTYICNVNHKPSNTKVDKRVEPKSCDKTHTCPPCPAPELLAGPSVFLFPPKPKDTLMISRTPEVTCVVVDVSHEDPEVKFNWYVDGVEVHNAKTKPREEQYNSTYRVVSVLTVLHQDWLNGKEYKCKVSNKALPLPEEKTISKAKGQPREPQVYTLPPSREEMTKNQVSLTCLVKGFYPSDIAVEWESNGQPENNYKTTPPVLDSDGSFFLYSKLTVDKSRWQQGNVFSCSVMHEALHNHYTQKSLSLSPGK
light chain: DIVMTQSPLSLPVTPGEPASISCRSSQSIVYSNGNTYLGWYLQKPGQSPQLLIYKVSNRFSGVPDRFSGSGSGTDFTLKISRVEAEDVGVYYCFQGSHVPYTFGQGTKLEIKVDAPSVFIFPPSDEQLKSGTASVVCLLNNFYPREAKVQWKVDNALQSGNSQESVTEQDSKDSTYSLSSTLTLSKADYEKHKVYACEVTHQGLSSPVTKSFNRGEC
notes: also called 5F9-hIgG1-GAALIE; GAALIE 5F9 ab
Turning to B5, the binding result with FcγRI [4] and with FcγRIIb [5] was “binds” throughout.

B6: mouse CD47 on RBCs of WT (C57BL/6J) mice (receptor, UniProt Q61735 19-303, looked up)
chain: QLLFSNVNSIEFTSCNETVVIPCIVRNVEAQSTEEMFVKWKLNKSYIFIYDGNKNSTTTDQNFTSAKISVSDLINGIASLKMDKRDAMVGNYTCEVTELSREGKTVIELKNRTVSWFSPNEKILIVIFPILAILLFWGKFGILTLKYKSSHTNKRIILLLVAGLVLTVIVVVGAILLIPGEKPVKNASGLGLIVISTGILILLQYNVFMTAFGMTSFTIAILITQVLGYVLALVGLCLCIMACEPVHGPLLISGLGIIALAELLGLVYMKFVASNQRTIQPPRNR
notes: whole, on cells; The legend names the cells (RBCs from WT mice); also called mCD47 on WT RBCs
Regarding B6, in test [6], the binding result was “no binding”.

B7: IgG2a (antibody)
heavy chain constant region: TTAPSVYPLAPVCGGTTGSSVTLGCLVKGYFPEPVTLTWNSGSLSSGVHTFPALLQSGLYTLSSSVTVTSNTWPSQTITCNVAHPASSTKVDKKIEPRVPITQNPCPPLKECPPCAAPDLLGGPSVFIFPPKIKDVLMISLSPMVTCVVVDVSEDDPDVQISWFVNNVEVHTAQTQTHREDYNSTLRVVSALPIQHQDWMSGKEFKCKVNNRALPSPIEKTISKPRGPVRAPQVYVLPPPAEEMTKKEFSLTCMITGFLPAEIAVDWTSNGRTEQNYKNTATVLDSDGSYFMYSKLRVQKSTWERGSLFACSVVHEGLHNHLTTKTISRSLGK
notes: The variable region is not specified there; also called mIgG2a; mouse IgG2a subclass (Fc format)
As to B7, the binding result in the test with FcγRI [2], with FcγRIII and with FcγRIIb [3] was “binds” each time.
